Key:
[1] = molecular target: mtGGGPS_(C194A)_K146C^+Am (Methanothermobacter thermautotrophicus) (UniProt O26652)
[2] = molecular target: mtGGGPS_(C194A)_K146C^+Am (Methanothermobacter thermautotrophicus) (UniProt O26652); assay: SEC-MALS; analytical SEC (Superdex 200 Increase 10/300 GL) in combination with static light scattering (right-angle light scattering and refractive index detectors); 40 μM subunit concentration; 50 mM potassium phosphate, pH 7.5, 300 mM KCl; room temperature (approx. 23 °C)
mtGGGPS = molecular target: T1, mtGGGPS (Methanothermobacter thermautotrophicus, UniProt O26652, K143C/C191A, form not given); assay: coupled pyrophosphate/phosphate detection at […] nm (PPase, PNPase, xanthine oxidase), G1P-dependent; assay type: biochemical; conditions: 11 μM GGPP, 10 mM MgCl2, pH 8.0, 40 °C, 0.2 % Tween80; without bromoethylamine (−Am), dimer
T1 construct: gene MTH_552; His-tagged, expressed in E. coli BL21-Gold(DE3); hexamer (trimer of dimers); C194A/K146C variant is a dimer unless rescued
T1 sequence (O26652 whole entry K143C/C191A, form open): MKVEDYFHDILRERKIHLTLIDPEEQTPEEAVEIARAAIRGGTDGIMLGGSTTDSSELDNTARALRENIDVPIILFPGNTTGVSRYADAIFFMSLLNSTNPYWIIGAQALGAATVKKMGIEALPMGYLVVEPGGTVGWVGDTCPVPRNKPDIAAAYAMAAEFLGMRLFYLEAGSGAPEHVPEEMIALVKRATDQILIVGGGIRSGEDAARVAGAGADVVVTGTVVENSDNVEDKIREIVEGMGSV

[3] = test system: T2, RGGGPS (AncGGGPS2_N4_IF_n12); assay: as above; assay type: biochemical; conditions: 11 μM GGPP, 10 mM MgCl2, pH 8.0, 40 °C, 0.2 % Tween80
T2 construct: His-tagged, from E. coli; hexamer

[4] = molecular target: mtGGGPS_(C194A) (Methanothermobacter thermautotrophicus) (UniProt O26652); assay: SEC-MALS; analytical SEC (Superdex 200 Increase 10/300 GL) in combination with static light scattering (right-angle light scattering and refractive index detectors); 40 μM subunit concentration; 50 mM potassium phosphate, pH 7.5, 300 mM KCl; room temperature (approx. 23 °C)
[5] = molecular target: geranylgeranylglyceryl phosphate synthase from Methanothermobacter thermautotrophicus, wild type (Methanothermobacter thermautotrophicus) (UniProt O26652); assay: as above
purified protein = substrate: O=P(O)(O)OC[C@@H](O)CO; assay: purified protein; assay type: biochemical, Methanothermobacter thermautotrophicus; conditions: 11 μM GGPP, 10 mM MgCl2, pH 8.0, 40 °C, 0.2 % Tween80

mtGGGPS_(C194A)_K146C^+Am (from UniProt O26652 1-245) (enzyme)
kcat/KM, photometric assay of the GGGPS reaction at 40 °C [1]: 192000 M⁻¹ s⁻¹ | percent in the hexameric state [2]: 100% | stoichiometry N [2]: 6

O=P(O)(O)OC[C@@H](O)CO [G1P, glycerol 1‐phosphate]
Km (mtGGGPS): 63.4 ± 5.8 µM | Km [3]: 14.2 ± 2.2 µM

mtGGGPS_(C194A)_K146C^−Am (from UniProt O26652 1-245) (enzyme)
kcat/KM, photometric assay of the GGGPS reaction at 40 °C [1]: 550 M⁻¹ s⁻¹ | stoichiometry N [2]: 2

mtGGGPS_(C194A) (from UniProt O26652 1-245) (enzyme)
stoichiometry N [4]: 6

geranylgeranylglyceryl phosphate synthase from Methanothermobacter thermautotrophicus, wild type (from UniProt O26652 1-245) (enzyme)
stoichiometry N [5]: 6

B1: mtGGGPS (Methanothermobacter thermautotrophicus str. Delta H) (protein)
chain: MKVEDYFHDILRERKIHLTLIDPEEQTPEEAVEIARAAIRGGTDGIMLGGSTTDSSELDNTARALRENIDVPIILFPGNTTGVSRYADAIFFMSLLNSTNPYWIIGAQALGAATVKKMGIEALPMGYLVVEPGGTVGWVGDTKPVPRNKPDIAAAYAMAAEFLGMRLFYLEAGSGAPEHVPEEMIALVKRCTDQILIVGGGIRSGEDAARVAGAGADVVVTGTVVENSDNVEDKIREIVEGMGSV
notes: His-tagged, expressed in E. coli BL21-Gold(DE3); hexamer (trimer of dimers); C194A/K146C variant is a dimer unless rescued
Km (purified protein): 2.0 ± 0.3 µM | kcat (purified protein): 0.23 ± 0.005 s⁻¹ | kcat/Km (purified protein): 115000 ± 17000 M⁻¹ s⁻¹

B2: mtGGGPS (Methanothermobacter thermautotrophicus str. Delta H; C191A) (protein)
chain: MKVEDYFHDILRERKIHLTLIDPEEQTPEEAVEIARAAIRGGTDGIMLGGSTTDSSELDNTARALRENIDVPIILFPGNTTGVSRYADAIFFMSLLNSTNPYWIIGAQALGAATVKKMGIEALPMGYLVVEPGGTVGWVGDTKPVPRNKPDIAAAYAMAAEFLGMRLFYLEAGSGAPEHVPEEMIALVKRATDQILIVGGGIRSGEDAARVAGAGADVVVTGTVVENSDNVEDKIREIVEGMGSV
notes: as for B1
Km (purified protein): 3.3 ± 0.6 µM | kcat (purified protein): 0.29 ± 0.01 s⁻¹ | kcat/Km (purified protein): 88000 ± 18000 M⁻¹ s⁻¹

— paper PMC9298306, “Controlling Enzymatic Activity by Modulating the Oligomerization State via Chemical Rescue and Optical Control” (Chembiochem, 2021)
